Results as given in article PMC11077437, “Scrutiny of chimeric antigen receptor activation by the extracellular domain: experience with single domain antibodies targeting multiple myeloma cells highlights the need for case-by-case optimization” (Frontiers in Immunology, 2024).

Columns and labels:
Experiment in all cases: flow cytometry on cells; 2D3 cells with a VHH-CAR incubated with biotinylated CS1 antigen, then PE-coupled streptavidin
Conditions in all cases: one partner purified
[1] = biological target: T1, VHH-63 CAR on 2D3 reporter T cells (llama | human)
T1 construct: as the VHH of m14; cloned by PstI/BstEII from pHEN6c; hinge region derived from human IgG4; transmembrane and intracellular co-stimulatory domain derived from human CD28; also called 2D3-63; VHH-CAR with VHH-63; source: 2D3 reporter T cells, lentivirally transduced, sorted, on cells

[2] = biological target: T2, VHH-17 CAR on 2D3 reporter T cells (llama | human)
T2 construct: as the VHH of m3; cloned by PstI/BstEII from pHEN6c; hinge region derived from human IgG4; transmembrane and intracellular co-stimulatory domain derived from human CD28; also called 2D3-17; VHH-CAR with VHH-17; source: 2D3 reporter T cells, lentivirally transduced, sorted, on cells

[3] = biological target: T3, VHH-73 CAR on 2D3 reporter T cells (llama | human)
T3 construct: as the VHH of m17; cloned by PstI/BstEII from pHEN6c; hinge region derived from human IgG4; transmembrane and intracellular co-stimulatory domain derived from human CD28; also called 2D3-73; VHH-CAR with VHH-73; source: 2D3 reporter T cells, lentivirally transduced, sorted, on cells

[4] = biological target: T4, VHH-53 CAR on 2D3 reporter T cells (llama | human)
T4 construct: as the VHH of m10; cloned by PstI/BstEII from pHEN6c; hinge region derived from human IgG4; transmembrane and intracellular co-stimulatory domain derived from human CD28; also called 2D3-53; VHH-CAR with VHH-53; source: 2D3 reporter T cells, lentivirally transduced, sorted, on cells

[5] = biological target: T5, VHH-71 CAR on 2D3 reporter T cells (llama | human)
T5 construct: as the VHH of m16; cloned by PstI/BstEII from pHEN6c; hinge region derived from human IgG4; transmembrane and intracellular co-stimulatory domain derived from human CD28; also called 2D3-71; VHH-CAR with VHH-71; source: 2D3 reporter T cells, lentivirally transduced, sorted, on cells

[6] = biological target: T6, VHH-57 CAR on 2D3 reporter T cells (llama | human)
T6 construct: as the VHH of m12; cloned by PstI/BstEII from pHEN6c; hinge region derived from human IgG4; transmembrane and intracellular co-stimulatory domain derived from human CD28; also called 2D3-57; VHH-CAR with VHH-57; source: 2D3 reporter T cells, lentivirally transduced, sorted, on cells

[7] = biological target: T7, VHH-61 CAR on 2D3 reporter T cells (llama | human)
T7 construct: as the VHH of m13; cloned by PstI/BstEII from pHEN6c; hinge region derived from human IgG4; transmembrane and intracellular co-stimulatory domain derived from human CD28; also called 2D3-61; VHH-CAR with VHH-61; source: 2D3 reporter T cells, lentivirally transduced, sorted, on cells

[8] = biological target: T8, VHH-2 CAR on 2D3 reporter T cells (llama | human)
T8 construct: as the VHH of m1; cloned by PstI/BstEII from pHEN6c; hinge region derived from human IgG4; transmembrane and intracellular co-stimulatory domain derived from human CD28; also called 2D3-2; VHH-CAR with VHH-2; source: 2D3 reporter T cells, lentivirally transduced, sorted, on cells

[9] = biological target: T9, VHH-6 CAR on 2D3 reporter T cells (llama | human)
T9 construct: as the VHH of m2; cloned by PstI/BstEII from pHEN6c; hinge region derived from human IgG4; transmembrane and intracellular co-stimulatory domain derived from human CD28; also called 2D3-6; VHH-CAR with VHH-6; source: 2D3 reporter T cells, lentivirally transduced, sorted, on cells

[10] = biological target: T10, VHH-29 CAR on 2D3 reporter T cells (llama | human)
T10 construct: as the VHH of m7; cloned by PstI/BstEII from pHEN6c; hinge region derived from human IgG4; transmembrane and intracellular co-stimulatory domain derived from human CD28; also called 2D3-29; VHH-CAR with VHH-29; source: 2D3 reporter T cells, lentivirally transduced, sorted, on cells

Measured: binding result

T8 sequence (heavy, as listed by the source): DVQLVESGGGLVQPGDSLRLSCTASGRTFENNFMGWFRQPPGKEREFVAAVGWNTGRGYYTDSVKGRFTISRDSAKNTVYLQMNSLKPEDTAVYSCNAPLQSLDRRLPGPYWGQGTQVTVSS
T2 sequence (heavy, as listed by the source): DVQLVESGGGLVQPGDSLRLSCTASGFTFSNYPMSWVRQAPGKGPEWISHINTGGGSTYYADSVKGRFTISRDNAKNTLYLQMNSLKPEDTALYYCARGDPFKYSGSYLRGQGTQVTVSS
T9 sequence (heavy, as listed by the source): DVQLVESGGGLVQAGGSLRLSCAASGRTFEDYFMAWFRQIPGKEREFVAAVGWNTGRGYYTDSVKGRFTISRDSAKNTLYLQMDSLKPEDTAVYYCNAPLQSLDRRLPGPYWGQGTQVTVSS

B1: biotinylated recombinant human CS1 (CS1-(his)C-PEG4-biotin) (domain or fragment, UniProt Q9NQ25 23-226, looked up)
chain: SGPVKELVGSVGGAVTFPLKSKVKQVDSIVWTFNTTPLVTIQPEGGTIIVTQNRNRERVDFPDGGYSLKLSKLKKNDSGIYYVGIYSSSLQQPSTQEYVLHVYEHLSKPKVTMGLQSNKNGTCVTNLTCCMEHGEEDVIYTWKALGQAANESHNGSILPISWRWGESDMTFICVARNPVSRNFSSPILARKLCEGAADDPDSSM
modifications: PEG4-biotin
notes: CS1 (SLAMF7, CD319), human, the extracellular portion, biotinylated variant; also called biotinylated CS1 antigen; biotinylated CS1 protein; source: custom-produced by U Protein Express
binds: all assays above
